In the Human Domainome abundance scans (Beltran et al. 2025):
± gives the uncertainty stated by the source.

Test: abundance fitness (aPCA) (normalised: wild type 0, dead -1); higher = more abundant; growth selection in yeast, the domain comes from the species named
Details: Homo sapiens

In order of falling abundance fitness:
1. Scaffold attachment factor B1 M58L, Q15424  -0.106 ± 0.058
2. Scaffold attachment factor B1 M58I, Q15424  -0.151 ± 0.071
3. Scaffold attachment factor B1 L57D, Q15424  -0.202 ± 0.061
4. Scaffold attachment factor B1 M58F, Q15424  -0.204 ± 0.075
5. Scaffold attachment factor B1 M58A, Q15424  -0.224 ± 0.063
6. Scaffold attachment factor B1 M58K, Q15424  -0.253 ± 0.086
7. Scaffold attachment factor B1 L57M, Q15424  -0.272 ± 0.074
8. Scaffold attachment factor B1 M58C, Q15424  -0.289 ± 0.083
9. Scaffold attachment factor B1 L61F, Q15424  -0.299 ± 0.067
10. Scaffold attachment factor B1 L61V, Q15424  -0.311 ± 0.065
11. Scaffold attachment factor B1 L57I, Q15424  -0.32 ± 0.077
12. Scaffold attachment factor B1 L61M, Q15424  -0.336 ± 0.083
13. Scaffold attachment factor B1 M58H, Q15424  -0.344 ± 0.079
14. Scaffold attachment factor B1 L61Y, Q15424  -0.351 ± 0.072
15. Scaffold attachment factor B1 M58G, Q15424  -0.368 ± 0.056
16. Scaffold attachment factor B1 M58N, Q15424  -0.37 ± 0.097
17. Scaffold attachment factor B1 L61T, Q15424  -0.393 ± 0.078
18. Scaffold attachment factor B1 L61C, Q15424  -0.41 ± 0.055
19. Scaffold attachment factor B1 L57V, Q15424  -0.417 ± 0.065
20. Scaffold attachment factor B1 L57A, Q15424  -0.462 ± 0.062
21. Scaffold attachment factor B1 L61E, Q15424  -0.484 ± 0.06
22. Scaffold attachment factor B1 L61S, Q15424  -0.508 ± 0.062
23. Scaffold attachment factor B1 L61G, Q15424  -0.511 ± 0.051
24. Scaffold attachment factor B1 L57N, Q15424  -0.521 ± 0.067
25. Scaffold attachment factor B1 L57Q, Q15424  -0.527 ± 0.074
26. Scaffold attachment factor B1 M58D, Q15424  -0.582 ± 0.078
27. Scaffold attachment factor B1 L61P, Q15424  -0.583 ± 0.09
28. Scaffold attachment factor B1 L57S, Q15424  -0.584 ± 0.052
29. Scaffold attachment factor B1 L57K, Q15424  -0.598 ± 0.088
30. Scaffold attachment factor B1 M58P, Q15424  -0.598 ± 0.1
31. Scaffold attachment factor B1 L61H, Q15424  -0.611 ± 0.085
32. Scaffold attachment factor B1 L61I, Q15424  -0.614 ± 0.12
33. Scaffold attachment factor B1 L61D, Q15424  -0.615 ± 0.086
34. Scaffold attachment factor B1 L57P, Q15424  -0.62 ± 0.074
35. Scaffold attachment factor B1 L61R, Q15424  -0.644 ± 0.057
36. Scaffold attachment factor B1 L61W, Q15424  -0.649 ± 0.052
37. Scaffold attachment factor B1 L61N, Q15424  -0.716 ± 0.13
38. Scaffold attachment factor B1 L57R, Q15424  -0.754 ± 0.054
39. Scaffold attachment factor B1 L57G, Q15424  -0.759 ± 0.069
40. Scaffold attachment factor B1 L61K, Q15424  -0.788 ± 0.12
41. Scaffold attachment factor B1 L57H, Q15424  -0.842 ± 0.1
42. Scaffold attachment factor B1 L57F, Q15424  -1.21 ± 0.1
43. Scaffold attachment factor B1 L57Y, Q15424  -1.23 ± 0.095
44. Scaffold attachment factor B1 L57W, Q15424  -1.37 ± 0.1
